Tests used:
[1] = target: T1, FLAG-tagged human RSPO3 (Genentech) (human, UniProt Q9BXY4 22-272); assay: competitive binding ELISA: antibody titrated against LGR4-Fc (LGR4-ECD) binding to plate-coated hRSPO3; signal = bound LGR4-Fc, OD(450/630)/OD no antibody
T1 construct: also called hRSPO3; RSPO3 coated plates; not shown: FLAG tag
T1 sequence: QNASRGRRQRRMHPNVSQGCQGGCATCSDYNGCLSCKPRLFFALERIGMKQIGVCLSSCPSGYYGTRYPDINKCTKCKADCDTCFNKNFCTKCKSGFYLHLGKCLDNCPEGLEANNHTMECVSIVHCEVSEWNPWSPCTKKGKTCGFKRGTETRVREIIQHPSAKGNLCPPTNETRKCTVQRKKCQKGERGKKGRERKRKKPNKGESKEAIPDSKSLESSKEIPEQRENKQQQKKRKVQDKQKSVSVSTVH
Experimental: (§1) To measure the activity of anti-RSPO antibodies in blocking the binding of LGR4 and -5 ECDs to RSPOs, MaxiSorp 384-well microwell plates (Thermo Scientific Nunc, Roskilde, Denmark) were coated with 25 ul/well of 0.5 μg/ml hRSPO2 or hRSPO3 (Genentech) in 50 mM carbonate buffer, pH 9.6, overnight at 4° C. Plates were blocked with at 80 ul/well of 0.5% bovine serum albumin, 15 parts per million Proclin 300 in phosphate buffered saline (PBS), pH 7.4, for 1 hour. Serially diluted anti-RSPO antibodies ([…] in […] serial dilution plus buffer blank) containing 0.1 μg/ml LGR4-Fc or 0.015 μg/ml LGR5-Fc in assay buffer (0.5% BSA, 0.05% polysorbate 20, 15 parts per million Proclin 300 in PBS) were added to the plates at 25 ul/well. After a 2-hour incubation, LGR4-Fc and LGR5-Fc bound to the plates were detected using peroxidase labeled goat F(ab′)2 anti-human Fc (Jackson ImmunoResearch, West Grove, Pa.). After a 1 hour incubation, the substrate 3,3′,5,5′-tetramethyl benzidine (Moss Inc., Pasadena, Md.) was added to the plates and the reaction was stopped by adding 1 M phosphoric acid. Plates were washed with PBS, pH 7.4, containing 0.05% tween 20, between steps and all the incubation steps following the coating step were performed at room temperature on an orbital shaker. Absorbance was read at 450 nm on a multiskan Ascent reader (Thermo Scientific, Hudson, N.H.).

[2] = target: T2, human RSPO3 with C-terminal HA tag, stably expressed in 293 cells (human, UniProt Q9BXY4 22-272); assay: IHC, FFPE 293 cell pellet, RSPO3 Med
T2 construct: Whole open reading frame expressed in HEK-293 cells (high, medium, low); FFPE pellets; also called hRSPO3; RSPO3 Hi
T2 sequence: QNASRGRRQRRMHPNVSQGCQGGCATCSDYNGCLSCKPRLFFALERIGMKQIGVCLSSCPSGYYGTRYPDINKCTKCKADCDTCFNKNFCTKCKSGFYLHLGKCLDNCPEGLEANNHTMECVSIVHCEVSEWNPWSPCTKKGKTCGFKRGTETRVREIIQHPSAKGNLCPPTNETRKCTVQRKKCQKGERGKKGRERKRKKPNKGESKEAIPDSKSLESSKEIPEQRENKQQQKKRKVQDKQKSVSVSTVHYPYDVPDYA

[3] = target: T3, human RSPO2 with C-terminal HA tag, stably expressed in 293 cells (human, UniProt Q6UXX9 22-243); assay: IHC, FFPE 293 cell pellet, RSPO2 Hi
T3 construct: Whole open reading frame was expressed from a lentiviral vector in HEK-293 cells sorted for high, medium or low expression; formalin-fixed paraffin-embedded pellets; also called hRSPO2; RSPO2 Hi

[4] = target: T4, human RSPO1 with C-terminal HA tag, stably expressed in 293 cells (human, UniProt Q2MKA7 21-263); assay: IHC, FFPE 293 cell pellet, RSPO1 Hi; - = not significant staining
T4 construct: also called hRSPO1; RSPO1 Hi
T4 sequence (Q2MKA7 other isoform, or with tags, fused parts or gaps limits assumed): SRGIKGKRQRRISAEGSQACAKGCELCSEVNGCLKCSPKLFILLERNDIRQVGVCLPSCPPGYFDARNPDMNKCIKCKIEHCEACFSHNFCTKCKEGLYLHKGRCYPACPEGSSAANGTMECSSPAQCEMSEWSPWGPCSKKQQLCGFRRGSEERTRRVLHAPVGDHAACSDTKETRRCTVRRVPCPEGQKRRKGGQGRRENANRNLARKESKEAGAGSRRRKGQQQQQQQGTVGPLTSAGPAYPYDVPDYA

cynomolgus RSPO3 = target: T5, cynomolgus RSPO3 (cynomolgus, UniProt A0A2K5UTQ7 22-273); assay: cell-based or functional assay
T5 sequence: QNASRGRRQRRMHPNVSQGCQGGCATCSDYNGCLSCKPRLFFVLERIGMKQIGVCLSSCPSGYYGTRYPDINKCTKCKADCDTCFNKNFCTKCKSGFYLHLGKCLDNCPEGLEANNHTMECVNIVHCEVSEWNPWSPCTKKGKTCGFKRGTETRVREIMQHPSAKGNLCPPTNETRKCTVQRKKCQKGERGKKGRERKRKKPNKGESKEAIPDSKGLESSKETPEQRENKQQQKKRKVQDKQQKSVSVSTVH

mouse RSPO3 = target: T6, mouse RSPO3 (mouse, UniProt Q2TJ95 22-277, limits assumed); assay: cell-based or functional assay
T6 sequence (looked up): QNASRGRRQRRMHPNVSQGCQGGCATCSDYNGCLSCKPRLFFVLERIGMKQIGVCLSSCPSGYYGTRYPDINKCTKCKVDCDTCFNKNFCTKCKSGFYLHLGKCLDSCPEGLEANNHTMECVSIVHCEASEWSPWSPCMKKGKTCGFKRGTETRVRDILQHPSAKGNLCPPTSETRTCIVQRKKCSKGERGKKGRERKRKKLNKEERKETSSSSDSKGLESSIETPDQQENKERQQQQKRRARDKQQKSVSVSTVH

recombinant human RSPO2 = recombinant human RSPO2 (human, UniProt Q6UXX9 22-243); assay: cell-based or functional assay
mouse RSPO2 = mouse RSPO2 (mouse, UniProt Q8BFU0 22-205, limits assumed); assay: cell-based or functional assay
Sequence of mouse RSPO2 (Q8BFU0 22-205 limits assumed): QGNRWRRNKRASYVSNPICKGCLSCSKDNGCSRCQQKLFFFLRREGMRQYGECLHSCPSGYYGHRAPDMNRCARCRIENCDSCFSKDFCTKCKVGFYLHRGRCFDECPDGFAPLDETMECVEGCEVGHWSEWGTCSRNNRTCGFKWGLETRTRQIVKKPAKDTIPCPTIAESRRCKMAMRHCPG

recombinant human RSPO3 = target: T7, recombinant human RSPO3 (human, UniProt Q9BXY4 22-272); assay: cell-based or functional assay
T7 sequence: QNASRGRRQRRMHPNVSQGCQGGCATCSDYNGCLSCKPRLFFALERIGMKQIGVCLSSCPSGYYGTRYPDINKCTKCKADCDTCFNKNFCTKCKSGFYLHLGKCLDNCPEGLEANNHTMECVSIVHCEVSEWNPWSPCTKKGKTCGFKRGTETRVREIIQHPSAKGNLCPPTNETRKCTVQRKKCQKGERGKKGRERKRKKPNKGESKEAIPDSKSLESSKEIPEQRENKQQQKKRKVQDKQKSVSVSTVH

cynomolgus RSPO2 = cynomolgus RSPO2 (cynomolgus, UniProt G7PCH9 22-243); assay: cell-based or functional assay
[5] = target: T8, human RSPO4 with C-terminal HA tag, stably expressed in 293 cells (human, UniProt Q2I0M5 20-234); assay: IHC, FFPE 293 cell pellet, RSPO4 Hi; - = not significant staining
T8 construct: also called hRSPO4; RSPO4 Hi
T8 sequence (Q2I0M5 other isoform, or with tags, fused parts or gaps limits assumed): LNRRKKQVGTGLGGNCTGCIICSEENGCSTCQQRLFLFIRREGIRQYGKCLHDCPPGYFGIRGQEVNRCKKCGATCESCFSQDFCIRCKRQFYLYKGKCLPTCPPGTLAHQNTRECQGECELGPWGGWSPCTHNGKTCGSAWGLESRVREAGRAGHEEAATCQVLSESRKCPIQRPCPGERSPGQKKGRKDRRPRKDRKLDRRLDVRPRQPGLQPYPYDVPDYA

[6] = target: T3, human RSPO2 with C-terminal HA tag, …; assay: IHC, FFPE 293 cell pellet, RSPO2 Low
[7] = target: T2, human RSPO3 with C-terminal HA tag, …; assay: IHC, FFPE 293 cell pellet, RSPO3 Hi
[8] = target: T1, FLAG-tagged human RSPO3 (Genentech); assay: competitive binding ELISA: titrated against biotinylated RNF43-Flag (RNF43-ECD) binding to plate-coated hRSPO3; signal = bound RNF43, normalized OD
[9] = target: T9, FLAG-tagged human RSPO2 (Genentech) (human, UniProt Q6UXX9 22-243); assay: competitive binding ELISA: titrated against biotinylated RNF43-Flag (RNF43-ECD) binding to plate-coated hRSPO2; signal = bound RNF43, normalized OD
T9 construct: also called hRSPO2; RSPO2 coated plates; not shown: FLAG tag

[10] = target: T2, human RSPO3 with C-terminal HA tag, …; assay: IHC, FFPE 293 cell pellet, RSPO3 Low
[11] = target: T3, human RSPO2 with C-terminal HA tag, …; assay: IHC, FFPE 293 cell pellet, RSPO2 Med
[12] = target: T9, FLAG-tagged human RSPO2 (Genentech); assay: competitive binding ELISA: antibody titrated against LGR4-Fc (LGR4-ECD) binding to plate-coated hRSPO2; signal = bound LGR4-Fc, OD(450/630)/OD no antibody
Experimental: as §1

[13] = target: T2, human RSPO3 with C-terminal HA tag, …; assay: IHC, FFPE 293 cell pellet, RSPO3 Hi; - = not significant staining
[14] = target: T10, human RSPO2 L186P variant (human, UniProt Q6UXX9 22-243); assay: cell-based or functional assay
T10 chain: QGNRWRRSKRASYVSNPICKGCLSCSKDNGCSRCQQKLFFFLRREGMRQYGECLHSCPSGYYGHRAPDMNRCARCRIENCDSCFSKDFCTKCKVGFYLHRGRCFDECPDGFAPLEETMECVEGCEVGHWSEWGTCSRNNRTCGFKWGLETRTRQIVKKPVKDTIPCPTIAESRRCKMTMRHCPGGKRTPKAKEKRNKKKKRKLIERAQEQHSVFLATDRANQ

[15] = target: T3, human RSPO2 with C-terminal HA tag, …; assay: IHC, FFPE 293 cell pellet, RSPO2 Hi; - = not significant staining
Target sequence in this assay (Q6UXX9 other isoform, or with tags, fused parts or gaps): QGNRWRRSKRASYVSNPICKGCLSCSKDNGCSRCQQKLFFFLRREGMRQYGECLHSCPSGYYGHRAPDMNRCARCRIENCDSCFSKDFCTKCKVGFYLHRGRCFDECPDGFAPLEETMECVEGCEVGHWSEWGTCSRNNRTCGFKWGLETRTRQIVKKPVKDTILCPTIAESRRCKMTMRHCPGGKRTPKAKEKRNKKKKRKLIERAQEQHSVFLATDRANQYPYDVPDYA

B1: 26E11 (antibody, V domains shown)
VH: EVQLQESGPSLVKPSQTLSLTCSVTGDSITSGYWSWIRKFPGNKLEFMGYISFSGKTYYIPSLKSRVSITRDTSKNQYYLQLNSVTTEDTATYYCATYHGYGGPWFAYWGQGTLVTVSS
VL: DIKMTQSPSSMYASLGERVTITCKASQDIDSYLSWFQQKPGKSPKTLIYLTNRLIDGVPSRFSGSGSGQDYSLTINSLEYEDMGIYYCLQYDEFPVTFGAGTRLEIK
notes: also called monoclonal antibody 26E11; anti-RSPO2/3 antibody
[1]
  IC50 (read off the curve): ~0.1 µg/mL
[2]
  percentage of cells staining: 70%
[3]
  percentage of cells staining: 70%
[4]
  binding result: no binding
Cynomolgus RSPO3
  IC50, WNT luciferase reporter, bivalent antibody: 0.2 pM
Mouse RSPO3
  IC50, WNT luciferase reporter, bivalent antibody: 0.4 pM
Recombinant human RSPO2
  IC50, WNT luciferase reporter, bivalent antibody: 9800 pM
Mouse RSPO2
  IC50, WNT luciferase reporter, bivalent antibody: 24000 pM
Recombinant human RSPO3
  IC50, WNT luciferase reporter, bivalent antibody: 0.01 pM
Cynomolgus RSPO2
  IC50, WNT luciferase reporter, bivalent antibody: 2700 pM
[5]
  binding result: no binding
[6]
  percentage of cells staining: 10%
[7]
  percentage of cells staining: 90%
[8]
  IC50 (read off the curve): ~0.08 µg/mL
[9]
  IC50 (read off the curve): ~0.1 µg/mL
[10]
  percentage of cells staining: 50%
[11]
  percentage of cells staining: 40%
[12]
  IC50 (read off the curve): ~0.09 µg/mL

B2: 1A1 (antibody, V domains shown)
VH: EVQLVESGGGLVKPEGSLKLSCVASGFTFSDYFMSWVRQAPGQGLEWVAHIYTKTYNYATYYSGSVKGRFSISRDDSRNMVYLQMNNLRTEDTATYYCTTDEDWYFDFWGQGTQVTVSS
VL: QPVLTQSPSVSASLGASVKLTCTLSSQHSTNYIEWYQQHPDKSPKFLMQVRDGSHSKGDGTPDRFSGSSSGAHRYLSISNLQLEDEAIYYCGLSDVSLYLFGSGTQLTLL
notes: also called monoclonal antibody 1A1
[13]
  binding result: no binding
[3]
  percentage of cells staining: 80%
[4]
  binding result: no binding
Cynomolgus RSPO3
  IC50, WNT luciferase reporter, bivalent antibody: > 500000 pM
Mouse RSPO3
  IC50, WNT luciferase reporter, bivalent antibody: > 500000 pM
Recombinant human RSPO2
  IC50, WNT luciferase reporter, bivalent antibody: 0.4 pM
Mouse RSPO2
  IC50, WNT luciferase reporter, bivalent antibody: 2.2 pM
Recombinant human RSPO3
  IC50, WNT luciferase reporter, bivalent antibody: > 500000 pM
Cynomolgus RSPO2
  IC50, WNT luciferase reporter, bivalent antibody: 0.5 pM
[5]
  binding result: no binding
[6]
  percentage of cells staining: 30%
[14]
  IC50 (read off the curve), WNT reporter RLU stimulated by 38 pM rhRSPO2 L186P: ~0.6 pM
[9]
  IC50 (read off the curve): ~0.1 µg/mL
[11]
  percentage of cells staining: 40%
[12]
  EC50 (read off the curve): ~0.07 µg/mL

B3: 5E11 (antibody, V domains shown)
VH: QVQLKQSGPGLVQPSQSLSITCTVSGFSLSSYAVHWVRQSPGEGLEWLGVIWSGGSTDYNAAFISRMSITKDNSKSQVFFKMNSLQADDTAIYFCARNDGYYYFDYWGQGTTLTVSS
VL: DIVMTQSTSSLSASLGDRVTISCRASQDISNYLNWYQQKPDGTVKLLIYYTSRLHSGVPSRFSGSGSGTDYSLTISNLEKEDVATYFCQHGDTLPPTFGGGTKLEIK
notes: also called monoclonal antibody 5E11
[15]
  binding result: no binding
[1]
  IC50 (read off the curve): ~0.1 µg/mL
[2]
  percentage of cells staining: 80%
[4]
  binding result: no binding
Cynomolgus RSPO3
  IC50, WNT luciferase reporter, bivalent antibody: 310 pM
Mouse RSPO3
  IC50, WNT luciferase reporter, bivalent antibody: 500 pM
Recombinant human RSPO2
  IC50, WNT luciferase reporter, bivalent antibody: > 500000 pM
Mouse RSPO2
  IC50, WNT luciferase reporter, bivalent antibody: > 500000 pM
Recombinant human RSPO3
  IC50, WNT luciferase reporter, bivalent antibody: 90 pM
Cynomolgus RSPO2
  IC50, WNT luciferase reporter, bivalent antibody: > 500000 pM
[5]
  binding result: no binding
[7]
  percentage of cells staining: 90%
[8]
  IC50 (read off the curve): ~0.08 µg/mL
[10]
  percentage of cells staining: 20%

— US20180312579A1 (Genentech, published 2018)
